Biological target: Fas/APO-1 (human) (UniProt P25445)

Substance: agonistic anti-APO-1 monoclonal antibody
- cell death of HeLa cells (rounding up and detachment, neutral red dye uptake): 70%

Reference: US6160106
